B1: Tudor domain-containing protein 3, residues 554 to 611; numbered along this chain, Q9H7E2 (parent)
chain: KMWKPGDECFALYWEDNKFYRAEVEALHSSGMTAVVKFIDYGNYEEVLLSNIKPIQTE
B2: Far upstream element-binding protein 1, residues 184 to 257; numbered along this chain, Q96AE4 (parent)
chain: GNAVQEIMIPASKAGLVIGKGGETIKQLQERAGVKMVMIQDGPQNTGADKPLRITGDPYKVQQAKEMVLELIRD

Variants of: B1
Experiment: abundance fitness (aPCA) (normalised: wild type 0, dead -1); higher = more abundant; growth selection in yeast, the domain comes from the species named
Details: Homo sapiens

Abundance fitness, by site and new letter:
M2: Y -0.15; P -0.36; T -0.23; A -0.192; E -0.19; L -0.098; S -0.009; V -0.164; K -0.36; Q -0.134; F -0.194; R -0.254; H -0.13; G -0.052; C -0.286; N -0.169; I -0.201; W -0.657
W3: F 0.031; A -0.634; N -0.737; Y -0.312; T -0.615; Q -0.721; M -0.079; C -0.509; R -1.01; S -0.885; V -0.053; E -0.866; P -0.314; I -0.059; G -0.856; H -0.842; D -1.31; K -1.01
L12: K 0.01; G -0.782; D -0.891; F -0.493; P -0.394; V -0.368; T -0.861; Q -0.252; W -0.384; Y -0.754; A -0.525; R -0.124; H -0.552; C -0.236; S -0.725; I -0.272; N -0.486
D7: A -0.396; G -0.899; V -0.789; I -0.826; W -0.882; Q -0.321; H -0.764; Y -0.712; T -0.502; C -0.573; L -0.731; P -0.706; R -0.762; K -0.887; F -0.677; S -0.608; N -0.631
G6: C -0.86; L -0.836; R -0.431; Q -0.832; I -0.941; K -0.416; W -0.545; M -0.922; S -0.776; D -0.874; Y -0.971; H -0.502; A -0.785; P -0.985; V -0.928; N -0.798; E -0.845; F -0.828; T -0.919
P5: L -0.261; S -0.113; C -0.201; A -0.017; Y -0.447; T -0.024; E -0.187; H -0.133; R -0.123; N 0.03; F -0.529; W -0.926; M -0.401; D -0.763; Q -0.061; G -0.61; I -0.141; V -0.034
W14: G 0.073; H 0.043; F -0.136; A 0.173; C 0.046; M 0.066; D 0.129; I -0.131; R 0.071; L -0.034; K 0.166; N 0.139; E 0.011; P 0.041; Q 0.169
E8: M -0.046; I 0.056; K 0.017; T -0.083; H 0.007; N -0.077; Y -0.079; W -0.178; Q -0.055; F -0.118; V -0.122; C -0.066; L -0.016; P -0.032; G -0.264
K1: L -0.187; T -0.278; Q -0.657; Y -0.158; C -0.261; V -0.225; A -0.218; D -0.182; I 0.134; E -0.143; R -0.326; H -0.003; N 0.085; W -0.336; G -0.138; S -0.283
C9: L -0.913; R -0.819; E -0.887; T -1.04; G -0.869; A -0.765; D -1.03; Y -0.802; K -0.915; N -0.82; F -0.915; Q -0.93; W -0.773; S -0.942; I -0.975; P -0.905; H -0.817
F10: C -0.2; E 0.023; K -0.32; S -0.234; G -0.84; V -0.128; T -0.383; M 0.068; A -0.178; Y 0.026; D -0.267; I -0.076; Q -0.006; L 0.084; W -0.051; H -0.255; P -0.923
K4: M -0.169; H -0.335; G -0.486; V -0.244; R -0.232; W -0.543; I -0.415; F -0.221; L -0.287; A -0.092; E -0.2; Q -0.158; N -0.233; P -0.912; C -0.169; Y -0.17; T -0.059; S -0.149; D -0.678
Y13: G -0.252; P -0.902; Q -0.292; T -0.323; L -0.15; A -0.02; F 0.065; K -0.028; I -0.975; V -0.897; N 0; W -0.06; M -0.287; R 0.069; D -0.345; C 0.068

Variants of: B2
Experiment: as above
Details: Homo sapiens

Abundance fitness, by site and new letter:
V68: S -0.425; Y -0.753; T -0.143; W -0.963
L69: T -0.021; K -0.028; H -0.073; Q 0.003; G -0.018; E 0.011; M 0.068; N 0.019; S -0.015; P -0.346; A -0.01; Y 0.008; D 0.016; V -0.082; F -0.077; I -0.102; R 0.011
E70: V -0.339; N -0.127; A -0.04; F -0.314; K 0.002; G -0.044; Q -0.072; I -0.432; P -0.308; C -0.105; H -0.081; R -0.063; D 0.046; Y -0.196; S -0.106; L -0.209; W -0.239; T -0.056; M -0.152
D74: S -0.111; P -0.016; E -0.058; T -0.076; H -0.167; Y -0.197; A -0.089; F -0.311; L -0.277; G 0.008; K -0.175; C -0.128; W -0.327; Q -0.059; M -0.193; R -0.089; N -0.114
R73: V -0.038; D 0.092; I -0.15; A 0.111; E 0.088; N -0.004; M 0.001; P -0.208; C -0.002; T 0.043; W -0.033; L -0.1; K 0.015; H 0.031; Q 0.048; S 0.044; F -0.197
L71: P -0.481; V -0.01; D -0.389; E -0.089; F -0.078; A -0.1; K -0.001; Q -0.082; Y -0.225; I 0.025; G -0.282; T -0.066; S -0.218; N -0.242; C -0.048; H -0.102; M -0.031; R -0.087; W -0.189
I72: Q -0.24; A -0.173; F -0.136; C 0.045; N -0.398; K -0.405; R -0.498; E -0.295; G -0.329; M -0.009; T -0.072; P -0.394; W -0.353; D -0.408; V 0.011; L 0.01; Y -0.276; H -0.524; S -0.301

Source: the Human Domainome abundance scans (Beltran et al. 2025)
